According to PMC9482650, “Quantitative fragmentomics allow affinity mapping of interactomes” (Nature Communications, 2022):
Numbering of substitutions follows the chain as printed.

Assays:
Experiment in all cases: holdup assay
Set-up in all cases: key: below the threshold = too weak to quantify, mostly under pKd 3.1 to 4
IL16_4, Q14005 = molecular target: IL16_4, Q14005
LIN7A, O14910 = molecular target: T1, LIN7A, O14910
T1 sequence (O14910 103-200, limits assumed, looked up): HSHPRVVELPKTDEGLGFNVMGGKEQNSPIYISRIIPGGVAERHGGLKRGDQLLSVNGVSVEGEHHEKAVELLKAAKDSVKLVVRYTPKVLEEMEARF

CARD11, Q9BXL7 = molecular target: T2, CARD11, Q9BXL7
T2 sequence (Q9BXL7 662-765, limits assumed, looked up): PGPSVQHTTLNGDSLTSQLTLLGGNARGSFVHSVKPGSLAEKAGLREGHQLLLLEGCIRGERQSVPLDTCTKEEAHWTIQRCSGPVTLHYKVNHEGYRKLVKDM

HTRA3, P83110 = molecular target: T3, HTRA3, P83110
T3 sequence (P83110 354-453, limits assumed, looked up): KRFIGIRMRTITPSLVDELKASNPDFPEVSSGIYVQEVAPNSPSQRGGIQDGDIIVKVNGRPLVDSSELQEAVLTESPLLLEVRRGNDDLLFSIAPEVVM

SNTG1, Q9NSN8 = molecular target: T4, SNTG1, Q9NSN8
T4 sequence (Q9NSN8 52-150, limits assumed, looked up): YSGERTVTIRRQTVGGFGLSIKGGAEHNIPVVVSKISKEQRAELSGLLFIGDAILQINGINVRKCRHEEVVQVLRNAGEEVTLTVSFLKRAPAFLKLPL

PICK1, Q9NRD5 = molecular target: PICK1, Q9NRD5
PICK1, Q9NRD5, sequence (Q9NRD5 17-115): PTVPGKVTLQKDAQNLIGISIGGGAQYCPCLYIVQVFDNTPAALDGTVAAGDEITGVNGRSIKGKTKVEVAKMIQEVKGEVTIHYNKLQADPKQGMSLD

TJP2_1, Q9UDY2 = molecular target: TJP2_1, Q9UDY2
TJP2_1, Q9UDY2, sequence (Q9UDY2 24-128): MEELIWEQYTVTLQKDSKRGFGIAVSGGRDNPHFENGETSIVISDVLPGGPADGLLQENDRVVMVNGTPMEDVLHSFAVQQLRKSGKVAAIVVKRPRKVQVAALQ

MPDZ_5, O75970 = molecular target: T5, MPDZ_5, O75970
T5 sequence (O75970 695-796, limits assumed, looked up): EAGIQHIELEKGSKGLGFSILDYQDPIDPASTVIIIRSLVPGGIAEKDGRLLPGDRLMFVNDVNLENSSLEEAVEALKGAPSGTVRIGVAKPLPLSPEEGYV

GRIP1_5, Q9Y3R0 = molecular target: T6, GRIP1_5, Q9Y3R0
T6 sequence (Q9Y3R0 568-668, limits assumed, looked up): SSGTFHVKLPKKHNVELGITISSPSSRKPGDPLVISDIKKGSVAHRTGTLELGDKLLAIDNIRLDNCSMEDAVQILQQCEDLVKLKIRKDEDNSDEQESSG

MAGI1_1, Q96QZ7 = molecular target: MAGI1_1, Q96QZ7
MAGI1_1, Q96QZ7, sequence (Q96QZ7 1-106): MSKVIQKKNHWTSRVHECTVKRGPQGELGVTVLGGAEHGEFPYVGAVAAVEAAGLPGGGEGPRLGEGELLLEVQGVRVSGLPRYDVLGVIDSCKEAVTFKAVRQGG

MAGI2_6, Q86UL8 = molecular target: MAGI2_6, Q86UL8
MAGI2_6, Q86UL8, sequence (Q86UL8 1141-1229): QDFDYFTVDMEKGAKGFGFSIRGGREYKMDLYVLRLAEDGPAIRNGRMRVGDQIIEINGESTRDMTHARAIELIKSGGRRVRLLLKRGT

Inadl_1, Q8NI35 = molecular target: Inadl_1, Q8NI35
Inadl_1, Q8NI35, sequence (Q8NI35 113-229): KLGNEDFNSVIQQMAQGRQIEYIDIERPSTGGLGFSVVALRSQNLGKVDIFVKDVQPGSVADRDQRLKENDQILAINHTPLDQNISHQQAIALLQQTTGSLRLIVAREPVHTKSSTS

ARHGAP21, Q5T5U3 = molecular target: T7, ARHGAP21, Q5T5U3
T7 sequence (Q5T5U3 45-169, limits assumed, looked up): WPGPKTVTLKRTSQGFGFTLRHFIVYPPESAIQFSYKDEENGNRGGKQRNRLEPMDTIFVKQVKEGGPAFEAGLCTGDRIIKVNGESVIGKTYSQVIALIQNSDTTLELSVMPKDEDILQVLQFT

TIAM2, Q8IVF5 = molecular target: T8, TIAM2, Q8IVF5
T8 sequence (Q8IVF5 885-986, limits assumed, looked up): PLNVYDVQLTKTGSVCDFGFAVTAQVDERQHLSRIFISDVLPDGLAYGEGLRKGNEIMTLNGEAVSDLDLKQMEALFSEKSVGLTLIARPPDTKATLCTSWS

Inadl_9, Q8NI35 = molecular target: Inadl_9, Q8NI35
Inadl_9, Q8NI35, sequence (Q8NI35 1530-1615): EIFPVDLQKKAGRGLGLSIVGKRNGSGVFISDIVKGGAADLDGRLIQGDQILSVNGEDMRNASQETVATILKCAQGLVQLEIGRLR

SNTB1, Q13884 = molecular target: T9, SNTB1, Q13884
T9 sequence (Q13884 107-205, limits assumed, looked up): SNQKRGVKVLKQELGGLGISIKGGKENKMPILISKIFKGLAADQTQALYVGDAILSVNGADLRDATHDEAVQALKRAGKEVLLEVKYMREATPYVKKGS

GRASP, Q7Z6J2 = molecular target: GRASP, Q7Z6J2
GRASP, Q7Z6J2, sequence (Q7Z6J2 96-193): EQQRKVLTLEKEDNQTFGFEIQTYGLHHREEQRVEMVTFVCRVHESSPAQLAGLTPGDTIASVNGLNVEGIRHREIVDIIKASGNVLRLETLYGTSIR

GRID2IP_1, A4D2P6 = molecular target: GRID2IP_1, A4D2P6
GRID2IP_1, A4D2P6, sequence (A4D2P6 1-87): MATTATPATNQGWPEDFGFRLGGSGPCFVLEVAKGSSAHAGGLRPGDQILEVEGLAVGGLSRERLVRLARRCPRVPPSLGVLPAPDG

NHERF3_4, Q5T2W1 = molecular target: T10, NHERF3_4, Q5T2W1
T10 sequence (Q5T2W1 373-468, limits assumed, looked up): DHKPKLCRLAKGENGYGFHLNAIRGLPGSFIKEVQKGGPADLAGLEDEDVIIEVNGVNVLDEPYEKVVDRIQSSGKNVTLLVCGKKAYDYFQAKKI

LIN7B, Q9HAP6 = molecular target: T11, LIN7B, Q9HAP6
T11 sequence (Q9HAP6 88-185, limits assumed, looked up): T1 sequence (O14910 103-200, limits assumed, looked up) with S2A, V20I, I35V, E42D, H65Q, K77Q, D78G, K89R

LRRC7, Q96NW7 = molecular target: T12, LRRC7, Q96NW7
T12 sequence (Q96NW7 1440-1537, limits assumed, looked up): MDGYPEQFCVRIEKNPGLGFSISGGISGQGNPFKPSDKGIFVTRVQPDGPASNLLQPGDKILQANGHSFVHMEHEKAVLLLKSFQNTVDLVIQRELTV

AHNAK1, Q09666 = molecular target: AHNAK1, Q09666
AHNAK1, Q09666, sequence (Q09666 4-100): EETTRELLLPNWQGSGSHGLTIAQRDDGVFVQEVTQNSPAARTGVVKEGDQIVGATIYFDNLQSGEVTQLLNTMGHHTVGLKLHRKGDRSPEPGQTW

PDZRN4_1, Q6ZMN7 = molecular target: PDZRN4_1, Q6ZMN7
PDZRN4_1, Q6ZMN7, sequence (Q6ZMN7 213-318): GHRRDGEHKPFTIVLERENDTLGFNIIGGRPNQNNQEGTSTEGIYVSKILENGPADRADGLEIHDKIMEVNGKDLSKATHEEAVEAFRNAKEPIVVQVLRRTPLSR

LNX2_3, Q8N448 = molecular target: T13, LNX2_3, Q8N448
T13 sequence (Q8N448 463-564, limits assumed, looked up): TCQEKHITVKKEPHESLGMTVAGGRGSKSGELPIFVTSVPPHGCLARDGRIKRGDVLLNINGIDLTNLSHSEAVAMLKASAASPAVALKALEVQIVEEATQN

[1] = plain residues with an end cap or a label only (N-terminal biotin on a linker: ahx)
[2] = plain residues with an end cap or a label only (N-terminal biotin on a linker: ttds)

IL16_4, Q14005, sequence (Q14005 1229-1329): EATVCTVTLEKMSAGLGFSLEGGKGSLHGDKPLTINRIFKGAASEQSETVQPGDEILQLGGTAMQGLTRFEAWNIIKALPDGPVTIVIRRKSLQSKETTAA

B1: RAPGEF2, Q9Y4G8 (peptide)
chain: EDEDEQVSAV
For B1, the pKd (IL16_4, Q14005; [1]) was “below the threshold”, the pKd (LIN7A, O14910; [1]) was “below the threshold” and the pKd (CARD11, Q9BXL7; [1]) was “below the threshold”. The pKd (HTRA3, P83110; [1]) was “below the threshold”, the pKd (SNTG1, Q9NSN8; [1]) was 4.29 and the pKd (PICK1, Q9NRD5; [1]) was “below the threshold”. For the same binder, the pKd (TJP2_1, Q9UDY2; [1]) was “below the threshold”, the pKd (MPDZ_5, O75970; [1]) was “below the threshold” and the pKd (GRIP1_5, Q9Y3R0; [1]) was “below the threshold”. For the same binder, the pKd (MAGI1_1, Q96QZ7; [1]) was “below the threshold”, the pKd (MAGI2_6, Q86UL8; [1]) was 4.57 and the pKd (Inadl_1, Q8NI35; [1]) was “below the threshold”. For the same binder, the pKd (ARHGAP21, Q5T5U3; [1]) was “below the threshold”, the pKd (TIAM2, Q8IVF5; [1]) was “below the threshold” and the pKd (Inadl_9, Q8NI35; [1]) was “below the threshold”. For the same binder, the pKd (SNTB1, Q13884; [1]) was 3.87, the pKd (GRASP, Q7Z6J2; [1]) was 4.86 and the pKd (GRID2IP_1, A4D2P6; [1]) was “below the threshold”. For the same binder, the pKd (NHERF3_4, Q5T2W1; [1]) was “below the threshold”, the pKd (LIN7B, Q9HAP6; [1]) was “below the threshold” and the pKd (LRRC7, Q96NW7; [1]) was “below the threshold”. For the same binder, the pKd (AHNAK1, Q09666; [1]) was “below the threshold”, the pKd (PDZRN4_1, Q6ZMN7; [1]) was “below the threshold” and the pKd (LNX2_3, Q8N448; [1]) was “below the threshold”.

B2: KCNA5, P22460 (peptide)
chain: CLDTSRETDL
With B2 the pKd (IL16_4, Q14005; [2]) was “below the threshold”, the pKd (LIN7A, O14910; [2]) was “below the threshold” and the pKd (CARD11, Q9BXL7; [2]) was “below the threshold”. The pKd (HTRA3, P83110; [2]) was “below the threshold”, the pKd (SNTG1, Q9NSN8; [2]) was 4.6 and the pKd (PICK1, Q9NRD5; [2]) was “below the threshold”. The pKd (TJP2_1, Q9UDY2; [2]) was “below the threshold”, the pKd (MPDZ_5, O75970; [2]) was “below the threshold” and the pKd (GRIP1_5, Q9Y3R0; [2]) was “below the threshold”. For the same binder, the pKd (MAGI1_1, Q96QZ7; [2]) was “below the threshold”, the pKd (MAGI2_6, Q86UL8; [2]) was 4.95 and the pKd (Inadl_1, Q8NI35; [2]) was “below the threshold”. The pKd (ARHGAP21, Q5T5U3; [2]) was 3.78, the pKd (TIAM2, Q8IVF5; [2]) was “below the threshold” and the pKd (Inadl_9, Q8NI35; [2]) was “below the threshold”. The pKd (SNTB1, Q13884; [2]) was 5.51, the pKd (GRASP, Q7Z6J2; [2]) was “below the threshold” and the pKd (GRID2IP_1, A4D2P6; [2]) was “below the threshold”. The pKd (NHERF3_4, Q5T2W1; [2]) was “below the threshold”, the pKd (LIN7B, Q9HAP6; [2]) was “below the threshold” and the pKd (LRRC7, Q96NW7; [2]) was 3.68. For the same binder, the pKd (AHNAK1, Q09666; [2]) was “below the threshold”, the pKd (PDZRN4_1, Q6ZMN7; [2]) was 3.98 and the pKd (LNX2_3, Q8N448; [2]) was “below the threshold”.

B3: MAP2K2, P36507 (peptide)
chain: QPGTPTRTAV
For B3, the pKd (IL16_4, Q14005; [2]) was “below the threshold”, the pKd (LIN7A, O14910; [2]) was “below the threshold” and the pKd (CARD11, Q9BXL7; [2]) was “below the threshold”. The pKd (HTRA3, P83110; [2]) was 3.5, the pKd (SNTG1, Q9NSN8; [2]) was 3.66 and the pKd (PICK1, Q9NRD5; [2]) was “below the threshold”. For the same binder, the pKd (TJP2_1, Q9UDY2; [2]) was 3.71, the pKd (MPDZ_5, O75970; [2]) was 3.49 and the pKd (GRIP1_5, Q9Y3R0; [2]) was “below the threshold”. For the same binder, the pKd (MAGI1_1, Q96QZ7; [2]) was “below the threshold”, the pKd (MAGI2_6, Q86UL8; [2]) was “below the threshold” and the pKd (Inadl_1, Q8NI35; [2]) was “below the threshold”. The pKd (ARHGAP21, Q5T5U3; [2]) was “below the threshold”, the pKd (TIAM2, Q8IVF5; [2]) was “below the threshold” and the pKd (Inadl_9, Q8NI35; [2]) was “below the threshold”. The pKd (SNTB1, Q13884; [2]) was “below the threshold”, the pKd (GRASP, Q7Z6J2; [2]) was 4.56 and the pKd (GRID2IP_1, A4D2P6; [2]) was “below the threshold”. For the same binder, the pKd (NHERF3_4, Q5T2W1; [2]) was “below the threshold”, the pKd (LIN7B, Q9HAP6; [2]) was “below the threshold” and the pKd (LRRC7, Q96NW7; [2]) was “below the threshold”. The pKd (AHNAK1, Q09666; [2]) was “below the threshold”, the pKd (PDZRN4_1, Q6ZMN7; [2]) was “below the threshold” and the pKd (LNX2_3, Q8N448; [2]) was “below the threshold”.
